From patent US20250345413A1 (VIRAVAXX, published 2025)

Target: T1, human ACE2 protein (GenScript) (human, UniProt Q9BYF1 18-740)
T1 construct: also called angiotensin-converting enzyme 2; hACE2
Assay: ELISA, plate-bound ACE2, detection by anti-His antibody

T1 sequence (Q9BYF1 18-740 limits assumed): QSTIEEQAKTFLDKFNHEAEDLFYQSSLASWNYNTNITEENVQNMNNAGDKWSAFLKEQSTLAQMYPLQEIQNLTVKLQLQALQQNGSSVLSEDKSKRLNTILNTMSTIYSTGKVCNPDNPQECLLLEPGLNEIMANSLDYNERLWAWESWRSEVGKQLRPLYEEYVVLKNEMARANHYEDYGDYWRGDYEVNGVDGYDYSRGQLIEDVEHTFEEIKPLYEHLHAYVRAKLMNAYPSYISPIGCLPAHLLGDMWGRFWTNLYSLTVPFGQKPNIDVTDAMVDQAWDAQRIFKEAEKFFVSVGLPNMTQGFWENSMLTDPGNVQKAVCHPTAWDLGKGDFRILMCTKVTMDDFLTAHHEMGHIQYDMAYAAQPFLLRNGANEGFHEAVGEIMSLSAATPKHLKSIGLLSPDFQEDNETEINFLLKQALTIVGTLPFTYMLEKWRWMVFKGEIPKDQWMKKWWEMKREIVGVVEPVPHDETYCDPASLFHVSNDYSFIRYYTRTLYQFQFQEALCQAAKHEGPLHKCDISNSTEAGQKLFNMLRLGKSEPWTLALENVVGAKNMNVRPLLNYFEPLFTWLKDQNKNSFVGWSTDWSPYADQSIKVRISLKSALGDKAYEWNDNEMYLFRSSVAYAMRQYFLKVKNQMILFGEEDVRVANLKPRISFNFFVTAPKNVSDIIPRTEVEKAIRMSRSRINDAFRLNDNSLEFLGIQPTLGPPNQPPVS

B1: cysteine-containing, His-tagged recombinant Parietaria allergen, Par j 2 (other)
chain: EEACGKVVQDIMPCLHFVKGEEKEPSKECCSGTKKLSEEVKTTEQKREACKCIVRATKGISGIKNELVAEVPKKCDIKTTLPPITADFDCSKIQSTIFRGYY
notes: also called negative control protein
binding result: no binding
